Test results published in US20230203155A1 (ALMAC DISCOVERY, published 2023).

Columns and labels:
[1] = molecular target: T1, human ROR2-hFc fusion protein (extracellular domain) (human); experiment: monoclonal phage ELISA on coated ROR2-Fc
T1 construct: Whole entry 'human ROR2-Fc (CHO)'; also called hROR2

[2] = molecular target: T2, mouse ROR1-Fc fusion protein (mouse); experiment: ELISA
T2 construct: Whole entry 'mouse ROR1-Fc (CHO)'; also called mROR1

human serum albumin = molecular target: T3, human serum albumin (human, UniProt P02768 25-609); experiment: BLI, HSA on sensor
T3 construct: also called HSA
Protocol: (§1) Binding kinetics were determined using a SPR (as previously described) or using Biolayer interferometry (K2 Octet instrument/Pall ForteBio). […] VNARs and VNAR-Fc molecules were tested at various concentrations and the Ka (M−1s−1), Kd (s−1) and KD (nM) values were determined using the Octet data analysis HT software (Pall ForteBio).

[3] = molecular target: T4, human ROR1-hFc fusion protein (extracellular domain) (human); experiment: BLI, ROR1-hFc on sensor
T4 construct: Whole entry 'human ROR1-Fc (CHO)'; also called hROR1; huROR1-Fc
Protocol: as §1

[4] = molecular target: T4, human ROR1-hFc fusion protein …; experiment: BLI, ROR1-hFc on sensor, 200 nM HSA present
Protocol: as §1

[5] = molecular target: T5, B1 VNAR with C-terminal His6Myc tag; experiment: competition ELISA: B1 pre-incubated with peptide, residual binding to coated huROR1-Fc
T5 construct: VNAR, E. coli; also called B1 his myc; B1HisMyc monomer
Protocol: (§2) In brief, ELISA method as follows. Wells coated with 100 ng antigen and incubated, covered, at room temperature for 2 hr. Plates washed 3×400 ul per well with PBST (PBS+0.05% Tween 20 (v/v)), then blocked with 4% skimmed milk powder (w/v) in PBST for 1 hour at 37° C. Plates washed as before plus additional wash in PBS alone. Binding proteins were diluted in 4% milk PBST and incubated overnight at 4° C. Plates washed 3× with PBST, 3×PBS and binding detected using appropriate secondary detection antibody in 4% milk PBST, room temperature 1 hour. […] Rabbit anti-Mouse IgG H&L, HRP (Abcam #ab97046) [0360] Mouse anti-polyHis, HRP (Sigma #A7058)
(§3) Competition assays were conducted as described in the methods with all four peptides reconstituted in PBS.

D3 his myc = molecular target: T6, D3 his myc; experiment: competition ELISA: D3 pre-incubated with peptide, residual binding to coated huROR1-Fc
T6 construct: VNAR; made in E. coli and in HEK293 (expression system under assay); also called D3 WT

P3A1 his myc = molecular target: T7, P3A1 his myc; experiment: competition ELISA: P3A1 pre-incubated with peptide, residual binding to coated huROR1-Fc
T7 construct: VNAR; also called P3A1 6xHis myc
Protocol: as §2, §3
T7 VNAR: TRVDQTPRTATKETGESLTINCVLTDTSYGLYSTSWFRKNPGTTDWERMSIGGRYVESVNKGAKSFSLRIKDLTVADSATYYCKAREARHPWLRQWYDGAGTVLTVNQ

D3-[G4S]5-D3 his myc = molecular target: T8, D3-[G4S]5-D3 his myc; experiment: competition ELISA: D3-D3 pre-incubated with peptide, residual binding to coated huROR1-Fc
T8 construct: VNAR homodimer by genetic fusion; also called D3-D3; D3 dimer

[6] = molecular target: T4, human ROR1-hFc fusion protein …; experiment: SPR, ROR1-hFc on chip
Protocol: (§4) Binding kinetics were determined using a Pioneer Surface Plasmon Resonance (SPR) instrument (SensiQ/Pall ForteBio). […] VNARs and VNAR-Fc molecules were tested at various concentrations and the Ka (M⁻¹s⁻¹), Kd (s⁻¹) and KD (nM) values were determined using QDat software (SensiQ/Pall ForteBio).

[7] = molecular target: T1, human ROR2-hFc fusion protein …; experiment: SPR, ROR2-hFc on chip
[8] = molecular target: T4, human ROR1-hFc fusion protein …; experiment: SPR, ROR1-hFc on chip; remark: listed apart in the source
Protocol: as §4

[9] = molecular target: T1, human ROR2-hFc fusion protein …; experiment: SPR, ROR2-hFc on chip; remark: listed apart in the source
Protocol: as §4, §1

[10] = molecular target: T9, rat ROR1-Fc fusion protein (rat); experiment: SPR, rat ROR1 on chip
T9 construct: Whole entry 'rat ROR1-Fc (CHO)'; also called rROR1
Protocol: as §4

[11] = molecular target: T2, mouse ROR1-Fc fusion protein; experiment: SPR, mouse ROR1 on chip
Protocol: as §4

[12] = molecular target: T4, human ROR1-hFc fusion protein …; experiment: SPR, ROR1-hFc on chip; remark: listed apart in the source
Protocol: as §4
(§5) The ability of the VNAR-MMAE conjugates and VNAR-fluorescein conjugates to bind to human ROR1 ECD was determined by SPR using the procedures described above.

[13] = molecular target: T1, human ROR2-hFc fusion protein …; experiment: SPR, ROR2-hFc on chip; remark: listed apart in the source
Protocol: as §4, §5

[14] = molecular target: T10, human ROR1 on the surface of ROR1hi human cancer cell lines (human, UniProt Q01973 30-937); experiment: flow cytometry on A549 (ROR1hi) cells, PE-anti Myc tag Ab
T10 construct: whole, on cells; Cell line is named under assay; also called cell surface ROR1
Protocol: FIG. 9: Cell surface binding of VNAR (His₆Myc tag) molecules to A549 (ROR1^hi) lung cancer cells by flow cytometry.
Adherent human cancer cells were detached from tissue culture flasks by incubating with 0.1% EDTA/PBS solution at 37° C. for −10 minutes or until cells detached easily. Cells were re-suspended in 5 ml ice-cold PBS/2% FCS in 15 ml tubes and centrifuged at 1500 rpm for 5 mins at 4° C. Supernatant was removed and the cell pellet re-suspended in 1-2 ml of PBS/2% FCS. A cell count was performed using a Z1 Coulter Particle Counter (Beckman Coulter) and 5×10\hat{ }5 cells were aliquoted per test sample. Cells were incubated with 100 μl of either VNAR (His₆Myc tagged), VNAR-Fc molecules or ROR1 mAb and IgG controls for 1 hour on ice. Excess VNAR, VNAR-Fc or mAb was removed by adding 5 ml of ice-cold PBS/2% FCS, followed by centrifugation at 1500 rpm for 5 mins at 4° C. The supernatant was removed and a second wash performed by re-suspending the cell pellet in 1 ml of ice-cold PBS/2% FCS and adding a further 4 ml of ice-cold PBS/2% FCS. Samples were again centrifuged at 1500 rpm for 5 min at 4° C. Supernatant was removed and excess liquid removed by blotting the tubes on tissue paper. […] Cells were incubated with chosen secondary antibody for 30 min on ice. Cells were washed to remove excess antibody as described earlier. […]

[15] = molecular target: T10, human ROR1 on the surface of ROR1hi …; experiment: flow cytometry, A549 (ROR1hi) cells, 4°C

T4 sequence (chain, as listed by the source limits assumed): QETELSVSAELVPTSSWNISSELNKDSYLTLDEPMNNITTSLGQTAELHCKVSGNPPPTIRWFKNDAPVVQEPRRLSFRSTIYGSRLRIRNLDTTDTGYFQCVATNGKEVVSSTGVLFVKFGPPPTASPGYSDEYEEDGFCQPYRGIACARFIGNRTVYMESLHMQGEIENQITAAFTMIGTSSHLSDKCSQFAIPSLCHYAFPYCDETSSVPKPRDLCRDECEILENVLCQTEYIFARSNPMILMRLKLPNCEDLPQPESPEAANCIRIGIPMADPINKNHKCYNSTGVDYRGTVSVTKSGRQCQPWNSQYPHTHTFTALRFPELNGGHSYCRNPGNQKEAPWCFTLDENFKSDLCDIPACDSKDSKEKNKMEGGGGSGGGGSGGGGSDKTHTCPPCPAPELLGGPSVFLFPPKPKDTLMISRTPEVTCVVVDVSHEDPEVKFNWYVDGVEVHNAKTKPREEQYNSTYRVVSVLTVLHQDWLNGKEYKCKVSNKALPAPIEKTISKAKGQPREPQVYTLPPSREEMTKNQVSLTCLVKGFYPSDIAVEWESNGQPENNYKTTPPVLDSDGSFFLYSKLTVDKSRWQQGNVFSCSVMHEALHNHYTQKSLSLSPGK
T9 sequence (chain, as listed by the source limits assumed): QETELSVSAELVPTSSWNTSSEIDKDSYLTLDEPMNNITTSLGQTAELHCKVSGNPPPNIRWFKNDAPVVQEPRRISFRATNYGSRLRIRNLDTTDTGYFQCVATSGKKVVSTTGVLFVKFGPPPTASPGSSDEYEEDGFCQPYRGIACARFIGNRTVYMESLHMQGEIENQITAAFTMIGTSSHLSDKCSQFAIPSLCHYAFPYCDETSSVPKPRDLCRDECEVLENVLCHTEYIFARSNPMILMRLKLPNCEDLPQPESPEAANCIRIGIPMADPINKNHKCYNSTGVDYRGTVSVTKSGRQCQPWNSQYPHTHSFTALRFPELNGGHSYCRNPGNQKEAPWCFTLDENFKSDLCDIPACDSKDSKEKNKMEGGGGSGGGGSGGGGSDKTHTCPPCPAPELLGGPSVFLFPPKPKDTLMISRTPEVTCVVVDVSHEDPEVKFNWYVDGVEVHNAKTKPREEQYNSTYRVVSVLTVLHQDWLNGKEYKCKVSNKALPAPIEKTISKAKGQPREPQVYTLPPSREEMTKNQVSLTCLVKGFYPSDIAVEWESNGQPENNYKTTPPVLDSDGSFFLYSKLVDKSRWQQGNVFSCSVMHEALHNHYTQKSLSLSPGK
T1 sequence (chain, as listed by the source limits assumed): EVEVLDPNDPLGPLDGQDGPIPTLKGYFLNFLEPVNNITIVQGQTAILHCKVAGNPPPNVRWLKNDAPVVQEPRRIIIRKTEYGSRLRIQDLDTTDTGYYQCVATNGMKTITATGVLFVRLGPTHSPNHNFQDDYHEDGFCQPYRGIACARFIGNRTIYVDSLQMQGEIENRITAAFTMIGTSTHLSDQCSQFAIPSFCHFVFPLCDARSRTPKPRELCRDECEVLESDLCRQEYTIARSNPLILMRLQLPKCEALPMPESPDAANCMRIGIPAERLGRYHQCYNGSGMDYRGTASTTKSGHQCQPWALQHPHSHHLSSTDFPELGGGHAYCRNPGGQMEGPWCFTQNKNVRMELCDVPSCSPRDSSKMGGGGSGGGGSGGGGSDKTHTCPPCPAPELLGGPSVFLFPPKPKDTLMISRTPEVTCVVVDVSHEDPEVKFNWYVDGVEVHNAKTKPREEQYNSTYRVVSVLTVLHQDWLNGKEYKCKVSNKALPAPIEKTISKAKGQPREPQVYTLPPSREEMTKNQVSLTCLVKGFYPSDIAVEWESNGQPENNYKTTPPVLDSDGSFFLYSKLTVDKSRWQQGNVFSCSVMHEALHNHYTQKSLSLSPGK
T2 sequence (chain, as listed by the source limits assumed): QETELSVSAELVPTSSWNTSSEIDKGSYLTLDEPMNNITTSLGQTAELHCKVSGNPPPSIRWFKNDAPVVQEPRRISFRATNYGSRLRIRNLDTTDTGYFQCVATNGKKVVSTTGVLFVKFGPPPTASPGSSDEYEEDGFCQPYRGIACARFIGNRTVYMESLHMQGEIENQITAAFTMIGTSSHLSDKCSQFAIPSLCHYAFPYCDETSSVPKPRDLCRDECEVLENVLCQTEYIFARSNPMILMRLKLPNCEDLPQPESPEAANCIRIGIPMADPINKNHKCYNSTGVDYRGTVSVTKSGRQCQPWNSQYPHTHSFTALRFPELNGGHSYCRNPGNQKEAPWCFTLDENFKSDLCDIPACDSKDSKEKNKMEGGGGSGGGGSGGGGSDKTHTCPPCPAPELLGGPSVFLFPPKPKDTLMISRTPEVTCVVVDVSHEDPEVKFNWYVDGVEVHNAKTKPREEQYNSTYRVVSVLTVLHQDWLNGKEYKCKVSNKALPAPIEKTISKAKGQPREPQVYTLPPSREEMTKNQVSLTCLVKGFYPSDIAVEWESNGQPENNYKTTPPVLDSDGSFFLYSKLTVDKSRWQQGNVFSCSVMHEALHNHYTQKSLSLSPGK

B1: P3A1 (VNAR)
VNAR: TRVDQTPRTATKETGESLTINCVLTDTSYGLYSTSWFRKNPGTTDWERMSIGGRYVESVNKGAKSFSLRIKDLTVADSATYYCKAREARHPWLRQWYDGAGTVLTVN
notes: also called P3A1 phage clone; P3A1 monoclonal phage
B1: no binding [1].

B2: BA11 Wobbe-G4S-P3A1-Wobbe-G4S-P3A1-CysHisMyc (VNAR)
chain: TRVDQSPSSLSASVGDRVTITCVLTDTSYPLYSTYWYRKNPGSSNKEQISISGRYSESVNKGTKSFTLTISSLQPEDSATYYCRAMSTNIWTGDGAGTKVEIKPGVQPSPGGGGSTRVDQTPRTATKETGESLTINCVLTDTSYGLYSTSWFRKNPGTTDWERMSIGGRYVESVNKGAKSFSLRIKDLTVADSATYYCKAREARHPWLRQWYDGAGTVLTVNPGVQPSPGGGGSTRVDQTPRTATKETGESLTINCVLTDTSYGLYSTSWFRKNPGTTDWERMSIGGRYVESVNKGAKSFSLRIKDLTVADSATYYCKAREARHPWLRQWYDGAGTVLTVNQACKAHHHHHHGAEFEQKLISEEDL
notes: VNAR fusion; also called BA11-P3A1-P3A1
For B2, the binding result [2] was “binds”, the Kd (human serum albumin) was 5.08 nM and the koff (human serum albumin) was 0.000566 s⁻¹. It also gave a kon (human serum albumin) of 111000 M⁻¹ s⁻¹, a Kd [3] of 3.47 nM and a koff [3] of 0.000447 s⁻¹. It also gave a kon [3] of 129000 M⁻¹ s⁻¹ and a Kd [4] of 2.53 nM.

B3: P3A1 Wobbe-G4S-BA11-Wobbe-G4S-P3A1 CysHisMyc (VNAR)
chain: TRVDQTPRTATKETGESLTINCVLTDTSYGLYSTSWFRKNPGTTDWERMSIGGRYVESVNKGAKSFSLRIKDLTVADSATYYCKAREARHPWLRQWYDGAGTVLTVNPGVQPSPGGGGSTRVDQSPSSLSASVGDRVTITCVLTDTSYPLYSTYWYRKNPGSSNKEQISISGRYSESVNKGTKSFTLTISSLQPEDSATYYCRAMSTNIWTGDGAGTKVEIKPGVQPSPGGGGSTRVDQTPRTATKETGESLTINCVLTDTSYGLYSTSWFRKNPGTTDWERMSIGGRYVESVNKGAKSFSLRIKDLTVADSATYYCKAREARHPWLRQWYDGAGTVLTVNQACKAHHHHHHGAEFEQKLISEEDL
notes: VNAR fusion; also called P3A1-BA11-P3A1
B3 was tested, and the binding result [2] was “binds”, the Kd (human serum albumin) was 5.58 nM and the koff (human serum albumin) was 0.00069 s⁻¹. The kon (human serum albumin) was 124000 M⁻¹ s⁻¹, the Kd [3] was 2.54 nM and the koff [3] was 0.00044 s⁻¹. It also gave a kon [3] of 173000 M⁻¹ s⁻¹ and a Kd [4] of 1.6 nM.

B4: Peptide 2 (peptide)
peptide: RSTIYGSRLRINLDTTDTGYFQ
notes: linear ROR1 ECD peptide; insoluble in PBS
B4: no binding (tested: 10 uM) [5]; no binding (D3 his myc); no binding (tested: about 500 uM as the axis is labelled) (P3A1 his myc). B4: no binding (D3-[G4S]5-D3 his myc).

B5: P3A1 dimer, no tag (VNAR)
chain: TRVDQTPRTATKETGESLTINCVLTDTSYGLYSTSWFRKNPGTTDWERMSIGGRYVESVNKGAKSFSLRIKDLTVADSATYYCKAREARHPWLRQWYDGAGTVLTVNGGGGSGGGGSGGGGSGGGGSGGGGSTRVDQTPRTATKETGESLTINCVLTDTSYGLYSTSWFRKNPGTTDWERMSIGGRYVESVNKGAKSFSLRIKDLTVADSATYYCKAREARHPWLRQWYDGAGTVLTVN
B5 showed a Kd [6] of 0.36 nM, a koff [6] of 0.000598 s⁻¹ and a kon [6] of 1.67e+06 M⁻¹ s⁻¹. B5: no binding [7].

B6: P3A1 his (VNAR)
VNAR: TRVDQTPRTATKETGESLTINCVLTDTSYGLYSTSWFRKNPGTTDWERMSIGGRYVESVNKGAKSFSLRIKDLTVADSATYYCKAREARHPWLRQWYDGAGTVLTVNQ
notes: VNAR; also called P3A1 6xHis
B6 showed a Kd [6] of 7.8 nM, a koff [6] of 0.0206 s⁻¹ and a kon [6] of 2.92e+06 M⁻¹ s⁻¹. B6: no binding [7].

QCVATNGKEVVSSTGVLFVKFGPPPTASPGYSDEYE (linear ROR1 ECD peptide) [Peptide 4]: no binding (tested: 10 uM) [5]; no binding (D3 his myc); no binding (tested: about 500 uM as the axis is labelled) (P3A1 his myc). QCVATNGKEVVSSTGVLFVKFGPPPTASPGYSDEYE (linear ROR1 ECD peptide) [Peptide 4]: no binding (D3-[G4S]5-D3 his myc).

CQPWNSQYPHTHTFTALRFP (linear ROR1 ECD peptide) [Peptide 3]: no binding (tested: 10 uM) [5]; no binding (D3 his myc); no binding (tested: about 500 uM as the axis is labelled) (P3A1 his myc). CQPWNSQYPHTHTFTALRFP (linear ROR1 ECD peptide) [Peptide 3]: no binding (D3-[G4S]5-D3 his myc).

B7: CPF7 his myc (VNAR)
VNAR: TRVDQTPRTATKETGESLTINCVVTGAKYGLFATYWYRKNPGSSNQERISISGRYVESVNKRTMSFSLRIKDLTVADSATYYCKAVFMPQHWHPAAHWYDGAGTVLTVNQ
notes: VNAR
Binder B7 has a Kd [8] of 13.6 nM, a koff [8] of 0.0296 s⁻¹ and a kon [8] of 2.33e+06 M⁻¹ s⁻¹. The binding result [9] was “no binding”, the Kd [10] was 68.6 nM and the koff [10] was 0.0366 s⁻¹. For the same binder, the kon [10] was 772000 M⁻¹ s⁻¹, the Kd [11] was 19.1 nM and the koff [11] was 0.032 s⁻¹. For the same binder, the kon [11] was 2.26e+06 M⁻¹ s⁻¹.

B8: E7 (VNAR)
VNAR: TRVDQTPRTATKETGESLTINCVVTGAKYGLAATYWYRKNPGSSNQERISISGRYVESVNKRTMSFSLRIKDLTVADSATYYCKAYPWAMWGQWYDGAGTVLTVN
notes: also called E7 phage clone; E7 monoclonal phage
B8: no binding [1].

B9: P3A1-P3A1-S-mal-vcMMAE (VNAR)
chain: TRVDQTPRTATKETGESLTINCVLTDTSYGLYSTSWFRKNPGTTDWERMSIGGRYVESVNKGAKSFSLRIKDLTVADSATYYCKAREARHPWLRQWYDGAGTVLTVNGGGGSGGGGSGGGGSGGGGSGGGGSTRVDQTPRTATKETGESLTINCVLTDTSYGLYSTSWFRKNPGTTDWERMSIGGRYVESVNKGAKSFSLRIKDLTVADSATYYCKAREARHPWLRQWYDGAGTVLTVNQASGAHHHHHHGAEFEQKLISEEDL
modifications: C-terminal thiol conjugated to MC vc PAB MMAE
For B9, the Kd [12] was 0.59 nM, the koff [12] was 0.0026 s⁻¹ and the kon [12] was 4.96e+06 M⁻¹ s⁻¹. B9: no binding [13].

B10: P3A1-P3A1-Ox-MMAE (VNAR)
chain: TRVDQTPRTATKETGESLTINCVLTDTSYGLYSTSWFRKNPGTTDWERMSIGGRYVESVNKGAKSFSLRIKDLTVADSATYYCKAREARHPWLRQWYDGAGTVLTVNGGGGSGGGGSGGGGSGGGGSGGGGSTRVDQTPRTATKETGESLTINCVLTDTSYGLYSTSWFRKNPGTTDWERMSIGGRYVESVNKGAKSFSLRIKDLTVADSATYYCKAREARHPWLRQWYDGAGTVLTVNQASGAHHHHHHGAEFEQKLISEEDL
modifications: C-terminal aminoxy oxime-linked to benzaldehyde PEG4 MMAE
With B10 the Kd [12] was 0.78 nM, the koff [12] was 0.0032 s⁻¹ and the kon [12] was 4.2e+06 M⁻¹ s⁻¹. B10: no binding [13].

B11: P3A1-P3A1-Ox-vcMMAE (VNAR)
chain: TRVDQTPRTATKETGESLTINCVLTDTSYGLYSTSWFRKNPGTTDWERMSIGGRYVESVNKGAKSFSLRIKDLTVADSATYYCKAREARHPWLRQWYDGAGTVLTVNGGGGSGGGGSGGGGSGGGGSGGGGSTRVDQTPRTATKETGESLTINCVLTDTSYGLYSTSWFRKNPGTTDWERMSIGGRYVESVNKGAKSFSLRIKDLTVADSATYYCKAREARHPWLRQWYDGAGTVLTVNQASGAHHHHHHGAEFEQKLISEEDL
modifications: C-terminal aminoxy oxime-linked to benzaldehyde PEG2 vc PAB MMAE
B11 was tested, and the Kd [12] was 1.43 nM, the koff [12] was 0.00277 s⁻¹ and the kon [12] was 2.07e+06 M⁻¹ s⁻¹. B11: no binding [13].

B12: E7 his myc (VNAR)
VNAR: TRVDQTPRTATKETGESLTINCVVTGAKYGLAATYWYRKNPGSSNQERISISGRYVESVNKRTMSFSLRIKDLTVADSATYYCKAYPWAMWGQWYDGAGTVLTVNQ
notes: VNAR
In the case of B12, the Kd [8] is reported as 11.1 nM, the koff [8] is reported as 0.0118 s⁻¹ and the kon [8] is reported as 1.11e+06 M⁻¹ s⁻¹. For the same binder, the binding result [9] was “no binding”, the Kd [11] was 1.4 nM and the koff [11] was 0.002 s⁻¹. For the same binder, the kon [11] was 1.41e+06 M⁻¹ s⁻¹ and the binding result [14] was “binds”.

B13: B1G1-B1G1 HisMyc (VNAR)
chain: TRVDQSPSSLSASVGDRVTITCVLTGANYGLASTYWYRKNPGSSNKEQISISGRYSESVNKGTKSFTLTISSLQPEDSATYYCRAYPWGAGAPWLVQWYDGAGTKVEIKGGGGSGGGGSGGGGSGGGGSGGGGSTRVDQSPSSLSASVGDRVTITCVLTGANYGLASTYWYRKNPGSSNKEQISISGRYSESVNKGTKSFTLTISSLQPEDSATYYCRAYPWGAGAPWLVQWYDGAGTKVEIKQASGAHHHHHHGAEFEQKLISEEDL
notes: VNAR fusion
In the case of B13, the “Median YL1-PE” value [15] is reported as 1470.
